The record followed here is patent US20030211992A1 (published 2003).

Assay [1] concerns the target T1, human IGFBP-1 (human, UniProt P08833 26-259).
T1 construct: biotinylated in the ELISA formats; amine-coupled to the chip in peptide kinetics
T1 sequence (looked up): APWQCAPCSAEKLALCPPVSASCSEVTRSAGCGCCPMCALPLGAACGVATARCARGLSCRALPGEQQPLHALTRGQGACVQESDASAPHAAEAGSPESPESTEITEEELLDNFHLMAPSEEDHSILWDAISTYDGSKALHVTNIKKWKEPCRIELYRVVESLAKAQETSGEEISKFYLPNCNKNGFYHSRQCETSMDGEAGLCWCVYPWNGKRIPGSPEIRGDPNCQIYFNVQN
Kind of assay: competitive phage ELISA.

The target in assay [2] is T2, recombinant human IGFBP-3 (human, UniProt P17936 28-291).
T2 construct: biotinylated and held on a streptavidin chip in the ALS experiment
T2 sequence (P17936 28-291 limits assumed): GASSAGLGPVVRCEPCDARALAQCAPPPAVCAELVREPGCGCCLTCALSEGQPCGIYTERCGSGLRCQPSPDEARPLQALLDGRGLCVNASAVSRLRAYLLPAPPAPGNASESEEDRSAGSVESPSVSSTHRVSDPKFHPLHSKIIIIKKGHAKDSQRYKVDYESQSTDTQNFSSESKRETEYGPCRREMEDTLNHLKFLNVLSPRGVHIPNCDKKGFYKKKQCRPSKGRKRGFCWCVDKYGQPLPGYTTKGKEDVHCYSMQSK
Kind of assay: competitive phage ELISA.

The target in assay [3] is T1, human IGFBP-1. Kind of assay: competitive phage ELISA. The source holds these as a separate data set. On the technique in general: An ELISA detects its analyte on a solid surface through an enzyme-linked reagent.
Assay [4] addresses T2, recombinant human IGFBP-3. The assay is described as follows: competitive phage ELISA. This is another data set of the same source.
Assay [5] addresses T1, human IGFBP-1. The assay is described as follows: competitive phage ELISA; the reference itself.
Assay [6] concerns the target T2, recombinant human IGFBP-3. Kind of assay: competitive phage ELISA; the reference itself.
The target in assay [7] is T2, recombinant human IGFBP-3. Kind of assay: phage ELISA on IGFBP-3 plate, competitor IGF-1. The procedure: The plates were then washed ten times, as above, and a solution of rabbit anti-phage antibody mixed with a goat-anti-rabbit conjugate of horseradish peroxidase was added. After an incubation of 1 hour at room temperature, the plates were developed with a chromogenic substrate, o-phenylenediamine (Sigma). The reaction was stopped with addition of ½ volume of 2.5 M H₂SO₄. Optical density at 490 nm was measured on a spectrophotometric plate reader.
In each case, the phagemid clone was grown from a single colony overnight at 37° C. in a culture volume of 5 ml. The phage particles were precipitated and resuspended in 0.5 ml of PBS buffer.

In assay [8] the target is IGFBP-3/E3A/F49A IGF-1 binary complex (human) (UniProt P17936). Kind of assay: BIAcore, ALS dissociation from the IGFBP-3/IGF-1 complex. In general terms: SPR reads the build-up and loss of mass on a sensor chip optically.
Sequence of IGFBP-3/E3A/F49A IGF-1 binary complex (human) (P17936 28-291, chain 1 of 2): as the sequence (P17936 28-291 limits assumed) above
Sequence of IGFBP-3/E3A/F49A IGF-1 binary complex (human) (chain, as listed by the source F49A F49A, chain 2 of 2): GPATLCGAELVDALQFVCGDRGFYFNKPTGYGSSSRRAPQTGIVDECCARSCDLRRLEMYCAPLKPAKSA
Assay [9] concerns the target IGFBP-3/F49A IGF-1 binary complex (human) (UniProt P17936). The assay is described as above.
The target in assay [10] is T1, human IGFBP-1. Kind of assay: stated with the explant experiment.
For assay [11], the target named is T1, human IGFBP-1. The assay is described as follows: BIAcore inhibition of IGFBP-1 binding to IGF-1.

Like-named read-outs stand apart in the source and are kept apart here. Positions of bridges follow the written chain, without caps; N, C: chain ends. No end group written: not given here.

Sequence of IGFBP-3/F49A IGF-1 binary complex (human) (P17936 28-291, chain 1 of 2): as the sequence (P17936 28-291 limits assumed) above
Sequence of IGFBP-3/F49A IGF-1 binary complex (human) (chain, as listed by the source F49A F49A, chain 2 of 2): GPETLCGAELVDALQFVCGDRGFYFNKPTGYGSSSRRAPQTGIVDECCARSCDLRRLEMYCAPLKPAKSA

The IC50 is the midpoint of a concentration-inhibition curve. With “IGF-1 G1S-A70V on phage (from UniProt P69168 267-424) (ligand)”, the 50% inhibitory concentration (IC50) turned out to be 8.2 nM with human IGFBP-1 [1], 0.75 nM in assay [2], 8.5 nM with human IGFBP-1 [3] and 0.5 nM in [4]. Moreover, the relative IC50 (mut/G1S-A70V) (with human IGFBP-1 [5]; in assay [6]) was 1 each time.
On to “T29A IGF-1 (G1S-A70V background) on phage (from UniProt P69168 267-424) (ligand)”, for which the results for the IC50 (with human IGFBP-1 [1]; in [2]) were 7.3 nM and 1.23 nM, respectively. In addition, the values for the relative IC50 (mut/G1S-A70V) (with human IGFBP-1 [1]; in assay [2]) were 0.9 and 1.6, respectively.
On the same counts, the results for “T41A IGF-1 (G1S-A70V background) on phage (from UniProt P69168 267-424) (ligand)” are 13.7 nM, 0.43 nM, 1.7 and 0.6.
As to “V44A IGF-1 (G1S-A70V background) on phage (from UniProt P69168 267-424) (ligand)”, the IC50 in the assay with human IGFBP-1 [1] was 18.8 nM; in [2], 1.03 nM. For the same molecule, the relative IC50 (mut/G1S-A70V) with human IGFBP-1 [1] was found to be 2.3; in assay [2], 1.4.
On the same counts, the results for “V70A IGF-1 (single mutant of G1S-A70V) on phage (from UniProt P69168 267-424) (ligand)” are 19.1 nM, 0.68 nM, 2.3 and 0.9.
As to “Y31A IGF-1 (G1S-A70V background) on phage (from UniProt P69168 267-424) (ligand)”, in the assay with human IGFBP-1 [1], the IC50 is 6.8 nM and the relative IC50 (mut/G1S-A70V) was determined as 0.8. Further, in assay [2], the IC50 is 0.73 nM and the relative IC50 (mut/G1S-A70V) was 1.
Consider “Y60A IGF-1 (G1S-A70V background) on phage (from UniProt P69168 267-424) (ligand)”, for which, in the assay with human IGFBP-1 [1], the IC50 was determined as 6.6 nM and the relative IC50 (mut/G1S-A70V) was 0.8. Also, in [2], the 50% inhibitory concentration (IC50) stood at 0.52 nM and the relative IC50 (mut/G1S-A70V) was 0.7.

B1: peptide-phage clone 4D3.11 (g8 display) (peptide)
chain: VAWEVCWDRHDQGYICTTDSGGGSGGGAEGDDPAKAAFNSLQASATEYIGYAWAMVVVIVGATIGIKLFKKFTSKAS
notes: polyvalent on M13 phage
On to B1, for which the “% inhibition of phage binding by 100 nM IGF-1” value (“% inhibition of phage binding” below) in assay [7] was found to be 5%.

B2: peptide-phage clone 4D3.9 (g8 display) (peptide)
chain: ETVANCDCYMDLCLCYGSDRGGGSGGGAEGDDPAKAAFNSLQASATEYIGYAWAMVVVIVGATIGIKLFKKFTSKAS
notes: polyvalent on M13 phage
As for B2, the “% inhibition of phage binding” value in assay [7] was over 40%.

B3: human acid-labile subunit (protein, UniProt P35858 28-605, looked up)
chain: ADPGTPGEAEGPACPAACVCSYDDDADELSVFCSSRNLTRLPDGVPGGTQALWLDGNNLSSVPPAAFQNLSSLGFLNLQGGQLGSLEPQALLGLENLCHLHLERNQLRSLALGTFAHTPALASLGLSNNRLSRLEDGLFEGLGSLWDLNLGWNSLAVLPDAAFRGLGSLRELVLAGNRLAYLQPALFSGLAELRELDLSRNALRAIKANVFVQLPRLQKLYLDRNLIAAVAPGAFLGLKALRWLDLSHNRVAGLLEDTFPGLLGLRVLRLSHNAIASLRPRTFKDLHFLEELQLGHNRIRQLAERSFEGLGQLEVLTLDHNQLQEVKAGAFLGLTNVAVMNLSGNCLRNLPEQVFRGLGKLHSLHLEGSCLGRIRPHTFTGLSGLRRLFLKDNGLVGIEEQSLWGLAELLELDLTSNQLTHLPHRLFQGLGKLEYLLLSRNRLAELPADALGPLQRAFWLDVSHNRLEALPNSLLAPLGRLRYLSLRNNSLRTFTPQPPGLERLWLEGNPWDCGCPLKALRDFALQNPSAVPRFVQAICEGDDCQPPAYTYNNITCASPPEVVGLDLRDLSEAHFAPC
Usually koff stands for the rate constant with which the complex falls apart. Read a high koff as a short-lived complex. Turning to B3, the koff was 0.0004 s⁻¹ in [8] and 0.00042 s⁻¹ in assay [9].

B4: peptide-phage clone 4D3.12 (g8 display) (peptide)
chain: AEWAECWIAGDQLLCVGKDNGGGSGGGAEGDDPAKAAFNSLQASATEYIGYAWAMVVVIVGATIGIKLFKKFTSKAS
notes: polyvalent on M13 phage
Turning to B4, in assay [7], the “% inhibition of phage binding” value is over 40%.
CRAGPLQWLCEKYF-NH2 (disulfide 1-10 (inferred)) [BP1-16]: in the assay with human IGFBP-1 [10], the binding result is given as “binds”.

B5: peptide-phage clone 4D3.8 (g8 display) (peptide)
chain: SEEVCWPVAEWYLCNILGPGGGSGGGAEGDDPAKAAFNSLQASATEYIGYAWAMVVVIVGATIGIKLFKKFTSKAS
notes: polyvalent on M13 phage
Regarding B5, the “% inhibition of phage binding” value in assay [7] is over 40%.

B6: peptide-phage clone 4C3.2 (g8 display) (peptide)
chain: ELDGWVCIKVGEQNLCYLAEGGGSGGGAEGDDPAKAAFNSLQASATEYIGYAWAMVVVIVGATIGIKLFKKFTSKAS
notes: polyvalent on M13 phage
With B6, the “% inhibition of phage binding” value in assay [7] is over 40%.
On to Ac-LEWLAEKYFE (linker 2-10 via 1,5‑diaminopentane) [(i+8)A], for which the fold potency reduction against BP1-01 in the assay with human IGFBP-1 [11] was over 200.
